Where two headings read alike, the source gives them in different places.
B1: SEB2 aptamer (ssDNA)
DNA: TAGCTCACTCATTAGGCACGGGTAGGCCATAATATCTTATTAGCGTAATTCTGCGATTGGCATAGTTAAGCCAGCC

Tests used:
[1] = biological target: Staphylococcal enterotoxin B (SEB, r-SEB) (Staphylococcus aureus, UniProt P01552 28-266)
[2] = biological target: Staphylococcal enterotoxin B (SEB, r-SEB) (Staphylococcus aureus, UniProt P01552 28-266); assay: AuNP colorimetric aggregation assay; 240 nM random DNA; conditions: protein: recombinant; label: none

Binder	binding result [1]	binding result [2]
B1	binds	–
CGTAGTCTAGTGTCGATTAGTTTCCTTGAGACCTTGTGCT (ssDNA) [random ssDNA (RDNA)]	–	no binding
